The results in this text go back to paper PMC12802937 (Nucleic Acids Research, 2026).

Common to all, as to assay: SPR; Lge1-CT immobilised on a CM5 chip, Bre1-LR flown over; Biacore 8K, 25°C, 20 mM HEPES (pH 7.5), 200 mM sodium chloride, 0.02% Tween 20
Settings in all cases: both partners purified

The target of one experiment is T1, Bre1-LR K534E (budding yeast, UniProt Q07457 227-700, K534E).
T1 construct: source: E. coli BL21 Rosetta (DE3), purified (Ni-NTA, heparin, gel filtration)
T1 sequence (looked up): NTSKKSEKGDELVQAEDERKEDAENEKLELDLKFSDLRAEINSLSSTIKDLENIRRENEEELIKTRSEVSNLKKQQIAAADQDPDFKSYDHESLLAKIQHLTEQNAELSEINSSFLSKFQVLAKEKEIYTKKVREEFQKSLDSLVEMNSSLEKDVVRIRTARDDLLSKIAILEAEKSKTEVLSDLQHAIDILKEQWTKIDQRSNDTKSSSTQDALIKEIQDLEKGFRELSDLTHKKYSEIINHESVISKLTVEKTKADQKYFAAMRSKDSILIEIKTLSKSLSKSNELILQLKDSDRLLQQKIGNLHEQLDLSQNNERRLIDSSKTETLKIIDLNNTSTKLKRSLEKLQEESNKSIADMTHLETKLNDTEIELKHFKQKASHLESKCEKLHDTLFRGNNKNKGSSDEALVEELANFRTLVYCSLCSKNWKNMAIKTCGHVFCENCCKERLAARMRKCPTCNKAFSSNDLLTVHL

A further experiment has as its target T2, Bre1-LR K379A (budding yeast, UniProt Q07457 227-700, K379A).
T2 construct: source: E. coli BL21 Rosetta (DE3), purified (Ni-NTA, heparin, gel filtration)
T2 sequence (looked up): T1 sequence (looked up) with K153A, E308K

For a further experiment, the target named is T3, Bre1-LR K352E (budding yeast, UniProt Q07457 227-700, K352E).
T3 construct: source: E. coli BL21 Rosetta (DE3), purified (Ni-NTA, heparin, gel filtration)
T3 sequence (looked up): T1 sequence (looked up) with K126E, E308K

The target in the next experiment is T4, Bre1-LR E378K/E500K (budding yeast, UniProt Q07457 227-700, E378K | E500K).
T4 construct: source: E. coli BL21 Rosetta (DE3), purified (Ni-NTA, heparin, gel filtration)
T4 sequence (looked up): T1 sequence (looked up) with E152K, E274K, E308K

Numbering of substitutions follows the chain as printed.

B1: Lge1-CT (Lge1 residues 261–332), intein-chitin binding domain (CBD) tag construct (domain or fragment, budding yeast, UniProt Q02796 261-332, looked up)
chain: KNVKKTNNTESECEKAREVFKESDSIDSALEELNLKINSNELELRLLNNQCDKHALNIQLTQEKLDSLLLMQ
notes: Lge1, budding yeast, residues 261-332; residues 268–331 resolved in the electron density; the intein-CBD tag is named on the protein in the pull-down; also called intein-CBD-fused Lge1-CT; intein-CBD-tagged Lge1-CT; source: E. coli BL21 Rosetta (DE3): cleared cell extract on chitin resin (pull-down); purified (chitin, heparin, gel filtration) for ITC and SPR; co-purified with Bre1-LR for the …
As to B1, the dissociation constant Kd (usually the equilibrium constant for the complex coming apart) amounted to 19.4 nM in the experiment with Bre1-LR K534E, 34 nM with Bre1-LR K379A, 76.6 nM in the experiment with Bre1-LR K352E and 29 nM with Bre1-LR E378K/E500K.
